Molecular target: Hexahistidine-tagged ALIX protein (UniProt Q8WUM4)
Test: MST

UniProt Q8WUM4, sequence (Q8WUM4 whole entry): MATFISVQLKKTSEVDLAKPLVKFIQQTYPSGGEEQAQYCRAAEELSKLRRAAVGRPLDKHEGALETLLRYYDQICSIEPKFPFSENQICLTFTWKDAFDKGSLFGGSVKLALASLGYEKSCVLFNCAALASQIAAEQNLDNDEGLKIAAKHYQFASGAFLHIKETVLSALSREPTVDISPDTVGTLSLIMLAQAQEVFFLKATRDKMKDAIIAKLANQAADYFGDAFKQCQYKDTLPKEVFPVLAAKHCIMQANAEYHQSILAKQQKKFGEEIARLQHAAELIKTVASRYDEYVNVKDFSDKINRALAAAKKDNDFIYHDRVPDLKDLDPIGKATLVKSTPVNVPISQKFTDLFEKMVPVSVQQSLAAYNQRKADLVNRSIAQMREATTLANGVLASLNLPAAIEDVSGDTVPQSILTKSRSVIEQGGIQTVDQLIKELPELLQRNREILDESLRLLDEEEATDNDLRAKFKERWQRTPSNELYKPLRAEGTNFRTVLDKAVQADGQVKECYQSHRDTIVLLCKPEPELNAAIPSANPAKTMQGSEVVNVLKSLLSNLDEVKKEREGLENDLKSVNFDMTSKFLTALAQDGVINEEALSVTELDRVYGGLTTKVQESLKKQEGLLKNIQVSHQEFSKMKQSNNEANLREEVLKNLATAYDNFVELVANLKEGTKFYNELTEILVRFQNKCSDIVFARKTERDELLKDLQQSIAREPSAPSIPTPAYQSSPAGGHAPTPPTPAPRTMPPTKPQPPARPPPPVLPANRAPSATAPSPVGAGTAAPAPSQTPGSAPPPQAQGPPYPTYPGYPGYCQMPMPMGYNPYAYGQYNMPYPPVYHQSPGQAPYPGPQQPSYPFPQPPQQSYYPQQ

Substance: HIV-1BWT Gag late domain motif peptide
- Kd: 32 nM

Substance: HIV-1CWT Gag late domain motif peptide
- Kd: 290 nM

From paper doi:10.1101/459156
